System: MS2 coat protein
Assay: apparent KD of MS2 coat protein; designed switch direction (-1 OFF switch, 1 ON switch): -1; higher = weaker reporter binding
In short: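 The buffer was Tris-HCl pH 7.5 with KCl, MgCl2, BSA, DTT, tRNA and Tween-20. In it, SNAP-549-labelled MS2 coat protein was titrated in doubling steps from 0.7 or 1.5 nM to 3 µM over chip-bound RNA switches transcribed by stalled E. coli RNA polymerase on Illumina chips. Apparent KD is the per-design median over clusters of curve fits to normalised fluorescence.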

[1] = input ligand: microRNA oligo, concentration not stated
[2] = Eterna round: R95, input ligand: FMN 200 uM
[3] = Eterna round: R95, input ligand: microRNA oligo, concentration not stated
[4] = Eterna round: R95, input ligand: none

CCGCAAAUGCAGGAUAUCGUAUCGGAAACGAUACGAGAAGGGUAAACAUGAGGAUCACCCAUGUUCCUUAACGG [Mat - Exclusion 6 - Eli Mod - D98] (Eterna round: R96, puzzle: Exclusion 6)
apparent KD of MS2 coat protein (input ligand: FMN 200 uM): 0.0155 µM
apparent KD of MS2 coat protein [1]: 0.0131 µM
apparent KD of MS2 coat protein (input ligand: none): 0.0181 µM

UGGAGAUAUAAGGAUAUAUUAGGAGGAGAGGAAAUAGAAGGUGUAACAUGAGGAUCACCCAUGUACCUCAUGUA [Default title] (Eterna round: R97, puzzle: Exclusion 6)
apparent KD of MS2 coat protein (input ligand: FMN 200 uM): 0.693 µM
apparent KD of MS2 coat protein (input ligand: none): 0.985 µM

CCGGCUGCUGUGAGGAUAUGCCUGUGGGCCCGCGGGCAGAAGGCACAUGAGGAUCACCCAUGUCCUGCGGUCCC [salish99_bmx4_r4_117] (Eterna round: R97, puzzle: Brourd's mod of Exclusion 4)
apparent KD of MS2 coat protein (input ligand: FMN 200 uM): 0.035 µM
apparent KD of MS2 coat protein (input ligand: none): 0.0335 µM

AGCUAGUCAGGAUAUACAAACAUGUCAAAAGACGUGAAGGGACAUGAGGAUCACCCAUGUAGAAGGGACUAGCA [Web Mod 74% 2] (Eterna round: R96, puzzle: Exclusion 2)
apparent KD of MS2 coat protein (input ligand: FMN 200 uM): 0.304 µM
apparent KD of MS2 coat protein [1]: 0.0431 µM
apparent KD of MS2 coat protein (input ligand: none): 0.0492 µM

AACCAGCUAGGAUAUGCUUGCGCGUGUUCUGGUUAUAAUCGACUUGAGGAUCACCCAAGUAGAAGGAGCUGGCG [EX2 #54] (Eterna round: R97, puzzle: Exclusion 2)
apparent KD of MS2 coat protein (input ligand: FMN 200 uM): 1.36 µM
apparent KD of MS2 coat protein (input ligand: none): 0.445 µM

AGUACUGAGCAGGAUAUAUACAGGAUGCCCUCUGUAGAAGGGCUAACAUGAGGAUCACCCAUGUCCUAUAUGGC [Eternabot (L2) Solution 56] (Eterna round: R97, puzzle: Exclusion 6)
apparent KD of MS2 coat protein (input ligand: FMN 200 uM): 0.039 µM
apparent KD of MS2 coat protein (input ligand: none): 0.0491 µM

AAUUAUUGAUGAGGAUAUUGUGGUGAAACACCACAAGAAGGCAUUAUACACAUGAGGAUCACCCAUGUGAGCCUGAUGCAUAUA [Ex NG1 #56] (Eterna round: R96, puzzle: Exclusion NG 1)
apparent KD of MS2 coat protein [1]: 0.0132 µM

UAUGUGUCAGGAUAUCGAUUAGAACAGAAUUUAACAAUAGUCGAGAAGGGACAUGAGGAUCACCCAUGUUCAUC [JR_Ex4_Sub022] (Eterna round: R97, puzzle: Exclusion 4)
apparent KD of MS2 coat protein (input ligand: FMN 200 uM): 0.0264 µM
apparent KD of MS2 coat protein (input ligand: none): 0.0189 µM

AGUCGAAAGAUCCACAUGGACAUGAGGAUCACCCAUGUGCAAGCCUUUUUCUCGUCACUAUCGUCAAAAGACGAUAG [Omei Mir Offv1 A6] (Eterna round: R97, puzzle: Sensor, turn-off variant 1)
apparent KD of MS2 coat protein (input ligand: FMN 200 uM): 0.185 µM
apparent KD of MS2 coat protein (input ligand: none): 0.234 µM

UUGUUAUAUGUAGGAUAUGCAUAUUAUUAUUAUGCAGAAGGACAUGAGGAUCACCCAUGUAUGUUGUUGUUAUAUAUUAUAUAU [Title] (Eterna round: R96, puzzle: Exclusion NG 1)
apparent KD of MS2 coat protein [1]: 0.0179 µM

UUGUUAUAUGUAGGAUAUGCAUAUUAUUAUUAUGCAGAAGGACAUGAGGAUCACCCAUGUAUAUUGUUAUUAUAUAUUAUAUAU [Title] (Eterna round: R96, puzzle: Exclusion NG 1)
apparent KD of MS2 coat protein [1]: 0.019 µM

ACGCGACAUGAGGAUCACCCAUGUGAGGAUAUGGCCUGUUUGUCGUGUGCUGGCUCUGUCAGAAGGCGCGUGGG [salish99_ex1_r4_041] (Eterna round: R97, puzzle: Exclusion 1)
apparent KD of MS2 coat protein (input ligand: FMN 200 uM): 0.612 µM
apparent KD of MS2 coat protein (input ligand: none): 0.683 µM

CGUCAGUGAGGAUAUGGUAACAUUUACAUGAGGAUCACCCAUGUUUCUUGGGACUAAAUACUAGAAGGCACUGACG [JR_Ex5_Sub032] (Eterna round: R97, puzzle: Exclusion 5)
apparent KD of MS2 coat protein (input ligand: FMN 200 uM): 0.0231 µM
apparent KD of MS2 coat protein (input ligand: none): 0.015 µM

AUAGAGUCAGGAUAUACAGGUGGAGGAGAGCAGCGUAAGGAGUAGAAGGGACAUGAGGAUCACCCAUGUAAGUG [JR_Exclu4_Sub060] (puzzle: Exclusion 4)
apparent KD of MS2 coat protein [2]: 0.0525 µM
apparent KD of MS2 coat protein [3]: 0.0551 µM
apparent KD of MS2 coat protein [4]: 0.0812 µM

AAUUAGUAUGUGAGGAUAUUAAUGGAAUGACUUAUUAAGAAGGCACAUGAGGAUCACCCAUGUGGGAAGUCACG [JR_BMEx4_Sub013] (Eterna round: R97, puzzle: Brourd's mod of Exclusion 4)
apparent KD of MS2 coat protein (input ligand: FMN 200 uM): 0.0492 µM
apparent KD of MS2 coat protein (input ligand: none): 0.0156 µM

UGAGUGCUGCGAGGAUAUACAUGAGGAUCACCCAUGUAAACCUGUGAGGCUUUGCCUCACAGGAUGUAGAAGGCGCAGUACUCU [JL ENG2 1.16] (Eterna round: R96, puzzle: Exclusion NG 2)
apparent KD of MS2 coat protein (input ligand: FMN 200 uM): 0.0155 µM
apparent KD of MS2 coat protein [1]: 0.00994 µM
apparent KD of MS2 coat protein (input ligand: none): 0.0132 µM

GGGAGGAGUGUAGGAUAUCCGACAAUCCUGUCAGGAGAAGGGCACCCUACUUGAGGAUCACCCAAGUCUCCGGGUGCUCAAGAA [Mutated MS2 EX1.15] (Eterna round: R96, puzzle: Exclusion NG 1)
apparent KD of MS2 coat protein (input ligand: FMN 200 uM): 0.00933 µM
apparent KD of MS2 coat protein [1]: 0.00822 µM
apparent KD of MS2 coat protein (input ligand: none): 0.0132 µM

GGAAAGGUAGGAUAUACGAAGAAAAAGGGUAGAAGAAAAACACAUGAGGAUCACCCAUGUAGAAGGACCAAAGG [Mat - Exclusion 2 - Mod of my Tesla design - D2] (puzzle: Exclusion 2)
apparent KD of MS2 coat protein [2]: 0.0514 µM
apparent KD of MS2 coat protein [3]: 0.0221 µM
apparent KD of MS2 coat protein [4]: 0.0234 µM

UAUAUAUAGUAAGGAUAUGUAAUUAUUUCAUAAACAGAAGGUACUGACAUGAGGAUCACCCAUGUUUUAGUGUGGGCAUGUAGA [JMF's solution 43] (Eterna round: R96, puzzle: Exclusion NG 1)
apparent KD of MS2 coat protein [1]: 0.0602 µM

GUUAUUUAUGUAGGAUAUGCAAGGCGAACCUAAGCAGAAGGACAUGAGGAUCACCCAUGUAUUGCGGUCUGCGUUCAGAUCGCU [salish99_ExNG1_r4_013] (Eterna round: R96, puzzle: Exclusion NG 1)
apparent KD of MS2 coat protein (input ligand: FMN 200 uM): 0.0862 µM
apparent KD of MS2 coat protein [1]: 0.015 µM
apparent KD of MS2 coat protein (input ligand: none): 0.022 µM

UUUAAUUUUUUUUUUUUACAAGCUUUUUGCUCGUCUUAUACAUGAGGAUCACCCAUGUGGGUAGGAGGUAAAUUAUC [JMF 72] (puzzle: Sensor v3, turn-off variant 2)
apparent KD of MS2 coat protein [2]: 0.0325 µM
apparent KD of MS2 coat protein [3]: 0.0504 µM
apparent KD of MS2 coat protein [4]: 0.0355 µM

UUUACAAGCUUAAGAUCCCACAUGAGGAUCACCCAUGUUGCUGCCGGUGACGGUAGCAUAACUUAUGCUCGUCUUAU [JL TOV1 3.60] (Eterna round: R97, puzzle: Sensor, turn-off variant 1)
apparent KD of MS2 coat protein (input ligand: FMN 200 uM): 0.177 µM
apparent KD of MS2 coat protein (input ligand: none): 0.188 µM

CCUCAGUAAGGAUAUCAGCUUAAGGAGGUGGUAAAGAGAGCUGAGAAGGUACAUGAGGAUCACCCAUGUUAAAA [Zatite] (Eterna round: R96, puzzle: Exclusion 4)
apparent KD of MS2 coat protein (input ligand: FMN 200 uM): 0.193 µM
apparent KD of MS2 coat protein [1]: 0.0471 µM
apparent KD of MS2 coat protein (input ligand: none): 0.0572 µM

ACAAGCUUUUAGAUUCUUAACAUGAGGAUCACCCAUGUGCUCGUCUUAUUGGCCGGCGGGCCGCCGGAAAAGCUUGU (Eterna round: R97, puzzle: Sensor, turn-off variant 1)
apparent KD of MS2 coat protein (input ligand: FMN 200 uM): 0.283 µM
apparent KD of MS2 coat protein (input ligand: none): 0.408 µM

UUGUUGUAUGUAGGAUAUGCAUAUUGUUAUUAUGCAGAAGGACAUGAGGAUCACCCAUGUAUGUUAUUAUUAUGUGUUAUGUGU [Title] (Eterna round: R96, puzzle: Exclusion NG 1)
apparent KD of MS2 coat protein [1]: 0.0303 µM

GUGUUGCGAGGAUAUAUAAGGGUAUGUUCUUGAGGUAUGGAACAUGAGGAUCACCCAUGUAGAAGGUGCAUAAC [JR_Ex2_Sub045] (Eterna round: R97, puzzle: Exclusion 2)
apparent KD of MS2 coat protein (input ligand: FMN 200 uM): 0.507 µM
apparent KD of MS2 coat protein (input ligand: none): 0.247 µM

AUAAAUCAUGUAGGAUAUGCGUGGCAAAGCUAUGCAGAAGGACAUGAGGAUCACCCAUGUCUUUCCGUCUGAGUACAGACGGGA [Mat - Exclusion NG 1 - Mod of JL - D47] (Eterna round: R96, puzzle: Exclusion NG 1)
apparent KD of MS2 coat protein (input ligand: FMN 200 uM): 0.172 µM
apparent KD of MS2 coat protein [1]: 0.0211 µM
apparent KD of MS2 coat protein (input ligand: none): 0.0249 µM

GAUUACCUAACAAGUAAGCACAUGAGGAUCACCCAUGUGGAGGGUCAUGUCAUGCUCAAGAUGCUCGUCAUUUCUAG [Eternabot (L2) Solution 38] (Eterna round: R97, puzzle: Sensor, turn-off variant 1)
apparent KD of MS2 coat protein (input ligand: FMN 200 uM): 0.18 µM
apparent KD of MS2 coat protein (input ligand: none): 0.193 µM

AAAUAAUAGAUAAAAUAAUACAUGAGGAUCACCCAUGUGGGAUGCUGAGGGUGAUACAAGCUUUUUGCUCGUCUUAU (puzzle: Sensor v3, turn-off variant 1)
apparent KD of MS2 coat protein [2]: 0.212 µM
apparent KD of MS2 coat protein [3]: 0.0197 µM
apparent KD of MS2 coat protein [4]: 0.245 µM

AACCAGCGAGGAUAUGCUUGAGCUUGUUCUGGUUAUAAUCGACUUGAGGAUCACCCAAGUAGAAGGUGCUGACG [EX2 #58] (Eterna round: R97, puzzle: Exclusion 2)
apparent KD of MS2 coat protein (input ligand: FMN 200 uM): 0.0256 µM
apparent KD of MS2 coat protein (input ligand: none): 0.0269 µM

GAUCAACAUGAGGAUCACCCAUGUGAGGAUAUUGACUUGCUCACUUUCCCAUCAGAGUCGAGAAGGCGCAUCUG [1986#21] (Eterna round: R97, puzzle: Exclusion 1)
apparent KD of MS2 coat protein (input ligand: FMN 200 uM): 0.0281 µM
apparent KD of MS2 coat protein (input ligand: none): 0.0408 µM

GACCGUGCUUAGGAUAUACGUUAGGAGUUGACCGUAGAAGGGAGUACAUGAGGAUCACCCAUGUCACCUACAGC [Eternabot (L2) Solution 75] (Eterna round: R97, puzzle: Exclusion 6)
apparent KD of MS2 coat protein (input ligand: FMN 200 uM): 0.0159 µM
apparent KD of MS2 coat protein (input ligand: none): 0.0165 µM

GAAUAGGCAGGAUAUACAUGAGGAUCACCCAUGUGCUUGCGAUAGGCACGUGAACAACGUAGAAGGGCCUUAAC [ChP 13.04.2015 #12] (Eterna round: R96, puzzle: Exclusion 3)
apparent KD of MS2 coat protein (input ligand: FMN 200 uM): 0.184 µM
apparent KD of MS2 coat protein [1]: 0.0308 µM
apparent KD of MS2 coat protein (input ligand: none): 0.0349 µM

UAAAAGCUAGGAUAUACAUGAGGAUCACCCAUGUCAACCACACGGAUGCGCCGAGCAUGUAGAAGGAGCACCGG [Soora] (puzzle: Exclusion 3)
apparent KD of MS2 coat protein [3]: 0.017 µM

Source: the supplement of paper PMC9170038
